For the experiment, the target named is human skeletal myosin IIa subfragment-1 (S1), oligonucleotide-labeled, on DNA origami-based thick filament (human). In words: high-speed atomic force microscopy.

These results are taken from publication doi:10.1101/2023.08.30.554051.

Turning to “actin filament (from UniProt P68135 1-377) (natural protein)”, the duty ratio is 0.87, the mean detachment time stood at 0.17 s, the time constant of the attachment time came out at 1.1 s and the time constant of the detachment time (fast) was 0.063 s. The time constant of the detachment time (slow) was determined as 0.68 s.
